Measured values: paper PMC9730451

Biological target: MGAT1 (GnT1) (UniProt P26572)
Experiment: co-immunoprecipitation, western blot
Conditions: reference: wild type, mitotic; sites S12

Substance: MAN1A1 (Golgi α-1,2-mannosidase IA) (from UniProt P33908) S12A, mitotic
- binding against the reference: stronger
